Data set [1] is described as follows: Biocatalytic conversions with target substrate rac-1 by NHase-CFE or cells, chiral HPLC analysis. It is filed as biochemical. The settings on record: for conversion / e.e. for (S): bioconversion of 100 mM rac-1; for conversion [%]: 300 rpm overnight; for eeP [%]: excess of (S); for Conv. [%]: NHase-CFE, overnight.
A short description of data set [2]: Substrate stability experiments: decomposition of rac-1 at different pH (Feigl-Anger paper, HPLC). It is filed as physicochemical. As for the experimental part: . In addition, the substrate was dissolved in ethanol as control. 100 μL of the rac-1 solutions were pipetted into a 96-well micro titer plate and covered with Feigl-Anger filter paper. Color development was documented by taking pictures (see FIG. 3).
To investigate the velocity of rac-1 decomposition at different pH, rac-1 was dissolved in different buffer, ranging from pH 5 to pH 10, and extracted immediately, after 2 and after 60 min, respectively, with 1 volume ethyl acetate. Extracts were dried over Na2SO4 and the supernatant evaporated using a vacuum centrifuge. The remaining substances (including rac-1) were dissolved in 100 μL of ethanol.
(R)- and (S)-1 were separated by a Chiralpak AD-H using n-heptane and ethanol in a ratio 90:10 as the mobile phase, at a flow rate of 1 mL/min for 8 min. The compounds were detected at 210 nm (DAD). Retention times of (R)- and (S)-1 were 4.2 min and 4.7 min, respectively.

With `CC[C@@H](C(N)=O)N1CCCC1=O` [compound 4, (S)-2-(2-oxopyrrolidin-1-yl)butane amide, reference compound], in data set [1], the conversion amounted to 51.8% and the “e.e. for (S)” value was 92.1%.
For `CCC(C#N)N1CCCC1` (racemic) [rac-1, 2-(Pyrrolidin-1-yl)butanenitrile], the “Percent (HPLC peak area vs zero value)” value in data set [2] (pH 5, 2 min) worked out at 57%; in data set [2] (pH 5, 1 hour), 32%; in data set [2] (pH 6, 2 min) it was 54%; in data set [2] (pH 6, 1 hour), 23%; in data set [2] (pH 6.5, 2 min), 47%; in data set [2] (pH 6.5, 1 hour), 22%. In addition, the “Percent (HPLC peak area vs zero value)” value came to 57% in data set [2] (pH 7, 2 min); 44% in data set [2] (pH 7, 1 hour); 66% in data set [2] (pH 7.5, 2 min); 50% in data set [2] (pH 7.5, 1 hour); 83% in data set [2] (pH 9, 2 min); 87% in data set [2] (pH 9, 1 hour). In addition, the “Percent (HPLC peak area vs zero value)” value in data set [2] (pH 10, 2 min) worked out at 78%; in data set [2] (pH 10, 1 hour) it was 86%. Moreover, in data set [1], the conversion was determined as 29.3%. The “e.e. for (S)” value in data set [1] was 92.8%.

B1: KoNHase: nitrile hydratase from Klebsiella oxytoca (protein, listed as Klebsiella oxytoca)
alpha: MSHKHDHDHTHPPVDIELRVRALESLLQEKGLIDPAALDELIDTYEHKVGPRNGAQVVARAWSDPEYKRRLMENATAAIAELGFSGIQGEDMLVVENTPDVHNVTVCTLCSCYPWPVLGLPPVWYKSAPYRSRIVIDPRGVLAEFGLHIPENKEIRVWDSSAELRYLVLPERPAGTEGWSEAQLSELITRDSMIGTGVVSAP
beta: MNGIHDLGGMHGLGPIPTEENEPYFHHEWERRVFPLFASLFVGGHFNVDEFRHAIERMAPTEYLQSSYYEHWLHAFETLLLAKGAITVEELWGGAKPAPCKPGTPVLTQEMVSMVVSTGGSARVSHDVAPRFRVGDWVRTKNFNPTTHTRLPRYARDKVGRIEIAHGVFITPDTAAHGLGEHPQHVYSVSFTAQALWGEPRPDKVFIDLWDDYLEEA
Regarding B1, the “enantioselectivity for (S)-2” value in data set [1] worked out at 78%. Further, the “conversion [%]” value in data set [1] (Table 4: 10 mM rac-1, NHase-CFE, 500 μL, pH 7.2, 25° C.) is 5.3%; in data set [1] (Table 5: 10 mM rac-1, NHase-CFE, pH 7.2, 37° C.), 4.4%; in data set [1] (Table 5: 10 mM rac-1, NHase-CFE, pH 7.2, 50° C.), 3.8%. The “eeP [%]” value in data set [1] (Table 5: 37° C., —^a: only (S)-amide was detected) is on record as 83 (S) %; in data set [1] (Table 5: 50° C., —^a: only (S)-amide was detected), 78 (S) %; in data set [1] (Table 6: 10 mM substrate), 79 (S) %; in data set [1] (Table 6: 50 mM substrate), 79 (S) %; in data set [1] (Table 6: 100 mM substrate), 75 (S) %. The “Conv. [%]” value in data set [1] (Table 6: 10 mM substrate, 25° C., pH 7.2) is listed as 5.3%; in data set [1] (Table 6: 50 mM substrate, 25° C., pH 7.2) it was 6.2%; in data set [1] (Table 6: 100 mM substrate, 25° C., pH 7.2), 2.6%. For the same molecule, in data set [1] (pH 7.2), the “Enantioselectivity eeP [%]” value is reported as 79 (S) %. Besides, the “enantiomeric excess of the product for (S)-2” value in data set [1] (time study: 20 mM substrate, CFE, 25° C., pH 7.2) is on record as 81%. In addition, for the setting “1 or 2 mM CoCl2, 2 h, 25° C.”, the “activity after cobalt pre-incubation” value is “lower activity than the control reaction”. Further, the “activity towards methacrylonitrile (MAN) hydrolysis” value (NHase-CFE, 114 mM substrate, pH 7.2, 25° C.) is “high activity”. The “stability after longer incubation at high pH” value (incubated at pH 9 or 9.5, 25° C., then MAN assay) is listed as “loses activity with time at pH 9.5”. Moreover, the “activity at high pH” value (methacrylonitrile hydration, carbonate buffer pH 10) was “still active at pH 10”. Under “pH 8”, the “thermal stability at 37° C.” value is given as “seem stable”.

(Values after patent US20230183177A1, “ENANTIOSELECTIVE CHEMO-ENZYMATIC SYNTHESIS OF OPTICALLY ACTIVE AMINO AMIDE COMPOUNDS” (priority 2020, published 2023).)
